Among the data in paper PMC3098174 are kcat/Kd of SPL activated by colipase (olive oil emulsion, 6 mM NaTDC) (S^-1 M^-1 10^-9), Kd and kcat/Kd of lipase activated by stingray colipase (olive oil emulsion, 6 mM NaTDC) (S^-1 M^-1 10^-9) values, retold here.

The target of assay [1] is Stingray Pancreatic Lipase (Dasyatis pastinaca) (common stingray Dasyatis pastinaca).
The target is the same in assay [2]. Nature of the assay: lipase activity titration with colipase, Scatchard plot; apparent Kd from the slope of Scatchard plots; lipase (2.1 nM) with increasing amounts of colipase, emulsified olive oil as substrate, 6 mM NaTDC, pH 8.5, 37°C, pH-stat.
The target of assay [3] is turkey pancreatic lipase (turkey).
In assay [4] the target is chicken pancreatic lipase (chicken).
Assay [5] deals with Stingray Pancreatic Lipase (Dasyatis pastinaca) (common stingray Dasyatis pastinaca). This is another data set of the same source.
The target in assay [6] is dromedary pancreatic lipase (dromedary).
Assay [7] addresses turkey pancreatic lipase (turkey). Nature of the assay: lipase activity titration with colipase, Scatchard plot; apparent Kd from the slope of Scatchard plots; lipase (2.1 nM) with increasing amounts of colipase, emulsified olive oil as substrate, 6 mM NaTDC, pH 8.5, 37°C, pH-stat.
The target of assay [8] is chicken pancreatic lipase (chicken). Described as above.
Assay [9] addresses Stingray Pancreatic Lipase (Dasyatis pastinaca) (common stingray Dasyatis pastinaca). The description is as above. The source holds these as a separate data set.
Assay [10] concerns the target dromedary pancreatic lipase (dromedary). The assay is described as above.

Read-outs that look alike come from different tables or passages of the source.

Sequence of Stingray Pancreatic Lipase (Dasyatis pastinaca) (common stingray Dasyatis pastinaca) (A0A059TA26 entry or part of it): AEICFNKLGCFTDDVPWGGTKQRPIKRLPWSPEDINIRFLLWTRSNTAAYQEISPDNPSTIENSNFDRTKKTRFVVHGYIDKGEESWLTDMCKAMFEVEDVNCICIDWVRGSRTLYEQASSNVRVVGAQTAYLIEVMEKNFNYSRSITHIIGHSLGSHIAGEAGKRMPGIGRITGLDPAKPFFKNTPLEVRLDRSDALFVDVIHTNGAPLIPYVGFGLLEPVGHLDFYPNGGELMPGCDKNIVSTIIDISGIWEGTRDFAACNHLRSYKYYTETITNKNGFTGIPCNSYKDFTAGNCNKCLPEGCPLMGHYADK

As to “turkey pancreatic colipase (natural protein)”, the kcat/Kd of SPL activated by colipase (olive oil emulsion, 6 mM NaTDC) (S^-1 M^-1 10^-9) in assay [1] amounted to 599. The Kd in assay [2] was 3.6 nM.

Consider “chicken pancreatic colipase (natural protein)”, for which the kcat/Kd of SPL activated by colipase (olive oil emulsion, 6 mM NaTDC) (S^-1 M^-1 10^-9) in assay [1] was 576. Besides, the Kd in [2] is 3.9 nM.

For “stingray pancreatic colipase (Dasyatis pastinaca) (natural protein)”, the kcat/Kd of SPL activated by colipase (olive oil emulsion, 6 mM NaTDC) (S^-1 M^-1 10^-9) in [1] was 2070. Moreover, the kcat/Kd of lipase activated by stingray colipase (olive oil emulsion, 6 mM NaTDC) (S^-1 M^-1 10^-9) was determined as 946 in assay [3], 611 in [4], 2070 in assay [5] and 930 in assay [6]. Besides, the Kd in [7] worked out at 2.9 nM; in [8] it was 4.5 nM; in [9], 1.15 nM; in assay [10] it was 3 nM; in [2], 1.2 nM.

Consider “dromedary pancreatic colipase (natural protein)”, for which the kcat/Kd of SPL activated by colipase (olive oil emulsion, 6 mM NaTDC) (S^-1 M^-1 10^-9) in [1] is 1140. Also, the Kd in assay [2] stood at 2.2 nM.
